Read-outs that look alike come from different tables or passages of the source.
T1: Activin A (UniProt P08476)
T1 sequence (looked up): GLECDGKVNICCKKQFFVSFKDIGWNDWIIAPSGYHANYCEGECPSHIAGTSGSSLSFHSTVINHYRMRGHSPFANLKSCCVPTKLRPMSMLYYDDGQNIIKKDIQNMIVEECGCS

T2: GDF11 (UniProt O95390 299-407)
T2 construct: also called Growth and Differentiation Factor-11; BMP11
T2 sequence (looked up): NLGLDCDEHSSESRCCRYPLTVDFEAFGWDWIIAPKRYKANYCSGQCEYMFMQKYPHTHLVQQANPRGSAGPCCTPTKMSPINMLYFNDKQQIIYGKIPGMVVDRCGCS


How the values were obtained:
Activin A [1] = biological target: T1, Activin A; assay: cell-based or functional assay
GDF11 [2] = biological target: T2, GDF11; assay: cell-based or functional assay
Activin A [3] = biological target: T1, Activin A; assay: cell-based or functional assay; remark: listed apart in the source
GDF11 [4] = biological target: T2, GDF11; assay: cell-based or functional assay; remark: listed apart in the source
GDF11 [5] = biological target: T2, GDF11; assay: BiaCore; ligand coupled to the device, receptor flowed

Row | Binder | IC50 (ng/mL), Activin, reporter assay, conditioned media (Activin A [1]) [ng/mL] | IC50 (ng/mL), GDF-11, reporter assay, conditioned media (GDF11 [2]) [ng/mL] | IC50 (ng/mL), Activin, reporter assay, conditioned media (Activin A [3]) [ng/mL] | IC50 (ng/mL), GDF-11, reporter assay, conditioned media (GDF11 [4]) [ng/mL] | other results
1 | ActRIIB(24-131)-hFc (Fc fusion, not shown: a dimerising Fc or GST) AETRECIYYNANWELERTNQSGLERCEGEQDKRLHCYASWRNSSGTIELVKKGCWLDDFNCYDRQECVATEENPQVYFCCCEGNFCNERFTHLPEAGGPEVTYEPPPT | 105 | 69 | – | – | –
2 | ActRIIB(22-131)-hFc (Fc fusion, not shown: a dimerising Fc or GST) GEAETRECIYYNANWELERTNQSGLERCEGEQDKRLHCYASWRNSSGTIELVKKGCWLDDFNCYDRQECVATEENPQVYFCCCEGNFCNERFTHLPEAGGPEVTYEPPPT | 100 | 71 | – | – | –
3 | ActRIIB(20-128)-hFc (Fc fusion, not shown: a dimerising Fc or GST) GRGEAETRECIYYNANWELERTNQSGLERCEGEQDKRLHCYASWRNSSGTIELVKKGCWLDDFNCYDRQECVATEENPQVYFCCCEGNFCNERFTHLPEAGGPEVTYEP | – | – | 158 | 130 | –
4 | ActRIIB-Fc A64 20-134 (Fc fusion, not shown: a dimerising Fc or GST) GRGEAETRECIYYNANWELERTNQSGLERCEGEQDKRLHCYASWANSSGTIELVKKGCWLDDFNCYDRQECVATEENPQVYFCCCEGNFCNERFTHLPEAGGPEVTYEPPPTAPT | – | – | – | – | Activin Inhibition Activity, cell-based assay (KI) (Activin A [3]): 1000 nM; GDF11 Inhibition Activity, cell-based assay (KI) (GDF11 [4]): 1000 nM
5 | Soluble ActRIIB-Fc +15tail (Fc fusion, not shown: a dimerising Fc or GST) SGRGEAETRECIYYNANWELERTNQSGLERCEGEQDKRLHCYASWANSSGTIELVKKGCWLDDFNCYDRQECVATEENPQVYFCCCEGNFCNERFTHLPEAGGPEVTYEPPPTAPT | – | – | – | – | Kd (GDF11 [5]): 19 nM
6 | ActRIIB(20-132)-hFc (Fc fusion, not shown: a dimerising Fc or GST) GRGEAETRECIYYNANWELERTNQSGLERCEGEQDKRLHCYASWRNSSGTIELVKKGCWLDDFNCYDRQECVATEENPQVYFCCCEGNFCNERFTHLPEAGGPEVTYEPPPTA | – | – | 32 | 87 | –

More lines, main results first:

Row | IC50 (ng/mL), Activin, reporter assay, conditioned media (Activin A [1]) [ng/mL] | IC50 (ng/mL), GDF-11, reporter assay, conditioned media (GDF11 [2]) [ng/mL] | IC50 (ng/mL), Activin, reporter assay, conditioned media (Activin A [3]) [ng/mL] | IC50 (ng/mL), GDF-11, reporter assay, conditioned media (GDF11 [4]) [ng/mL] | Binder | other results
7 | 43 | 60 | – | – | ActRIIB(23-131)-hFc (Fc fusion, not shown: a dimerising Fc or GST) EAETRECIYYNANWELERTNQSGLERCEGEQDKRLHCYASWRNSSGTIELVKKGCWLDDFNCYDRQECVATEENPQVYFCCCEGNFCNERFTHLPEAGGPEVTYEPPPT | –
8 | 201 | 183 | 44 | 120 | ActRIIB(20-131)-hFc (Fc fusion, not shown: a dimerising Fc or GST) GRGEAETRECIYYNANWELERTNQSGLERCEGEQDKRLHCYASWRNSSGTIELVKKGCWLDDFNCYDRQECVATEENPQVYFCCCEGNFCNERFTHLPEAGGPEVTYEPPPT | –
9 | 325 | 121 | – | – | ActRIIB(21-131)-hFc (Fc fusion, not shown: a dimerising Fc or GST) RGEAETRECIYYNANWELERTNQSGLERCEGEQDKRLHCYASWRNSSGTIELVKKGCWLDDFNCYDRQECVATEENPQVYFCCCEGNFCNERFTHLPEAGGPEVTYEPPPT | –

— patent US20190263876A1 (published 2019)
